Data: patent publication US20060272037A1 (JULIUS MAXIMILIANS UNIVERSITAT, published 2006)

What was measured:
[1] = biological target: T1, PTH receptor-cam8 "chameleon" (human); test: competition ligand binding, receptor stably expressed in HEK293 cells
T1 construct: Stably expressed in HEK293 cells; also tested in membranes made from these cells; also called PTHR-cam; PTHR-cam8

[2] = biological target: T1, PTH receptor-cam8 "chameleon"; test: cell-based or functional assay

T1 sequence (chain, as listed by the source limits assumed): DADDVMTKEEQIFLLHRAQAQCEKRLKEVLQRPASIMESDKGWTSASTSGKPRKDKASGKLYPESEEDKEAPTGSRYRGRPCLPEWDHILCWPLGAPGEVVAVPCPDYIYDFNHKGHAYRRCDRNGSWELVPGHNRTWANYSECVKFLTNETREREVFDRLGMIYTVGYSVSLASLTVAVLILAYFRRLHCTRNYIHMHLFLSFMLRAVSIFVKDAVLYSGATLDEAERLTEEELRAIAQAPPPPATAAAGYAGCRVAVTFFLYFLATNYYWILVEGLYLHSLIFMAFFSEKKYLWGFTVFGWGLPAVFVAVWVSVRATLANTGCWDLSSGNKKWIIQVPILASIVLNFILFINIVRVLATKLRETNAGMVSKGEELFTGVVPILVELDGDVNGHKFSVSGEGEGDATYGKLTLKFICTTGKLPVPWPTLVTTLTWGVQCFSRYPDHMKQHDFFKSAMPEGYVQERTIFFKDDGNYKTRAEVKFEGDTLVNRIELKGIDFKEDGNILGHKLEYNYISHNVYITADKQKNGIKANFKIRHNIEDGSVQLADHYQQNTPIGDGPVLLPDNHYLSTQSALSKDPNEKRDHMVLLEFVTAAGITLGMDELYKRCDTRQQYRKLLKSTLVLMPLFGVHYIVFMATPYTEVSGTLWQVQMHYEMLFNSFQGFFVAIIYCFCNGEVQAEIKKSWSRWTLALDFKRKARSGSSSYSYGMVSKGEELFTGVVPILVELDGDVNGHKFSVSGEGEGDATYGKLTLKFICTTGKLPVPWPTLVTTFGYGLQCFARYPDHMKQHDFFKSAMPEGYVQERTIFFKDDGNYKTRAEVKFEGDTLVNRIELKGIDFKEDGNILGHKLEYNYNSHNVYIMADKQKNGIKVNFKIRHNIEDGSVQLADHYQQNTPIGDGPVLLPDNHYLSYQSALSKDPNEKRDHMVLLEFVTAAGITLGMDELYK

SVSEIQLMHNLGKHLNSMERVEWLRKKLQDVHNF (peptide, UniProt P01270 32-65, looked up) [parathyroid hormone (PTH)]
Ki [1]: 15.5 nM
EC50 of signalling to adenylyl cyclase [2]: 12.8 nM
